A word on the Kd: it is the concentration at which binding is half-saturated. High values mean weaker binding, low ones tighter binding. For orientation: koff means a measure of how fast the partners let go of each other. One may read the kon as the rate constant with which the complex forms. A low value points to slow association.

Residue numbers refer to the chain shown, from its start. In names and notes the source's numbering stands.

We go through seven molecules from patent US20140056903A1 (Regeneron, published 2014).

The target in experiment [1] is T1, human GFRα3 expressed with a C-terminal myc-myc-hexahistidine tag (human, UniProt O60609 32-374, biotinylated (sites not given) in ELISA format 2 and in the Octet cross-competition; not in SPR).
T1 construct: also called hGFRα3-mmh; hGFRα3-mmH
Kind of experiment: Octet cross-competition; biotin-hGFRα3-mmH pre-saturated with first antibody H4H2357S. The method, then: (§1) A cross-competition assay was conducted to assess the ability of select antibodies to compete with one another for binding to human GFRα3 using an Octet RED384 biosensor (Fortebio Inc.). The entire experiment was performed at 25° C. with the flow rate of 1000 rpm in Octet HBST buffer (0.01 M HEPES pH7.4, 0.15M NaCl, 3 mM EDTA, 0.05% v/v Surfactant P20, 0.1 mg/mL BSA). To assess whether 2 antibodies were able to compete with one another for binding to their respective epitopes on biotinylated recombinant human GFRα3 expressed with a C-terminal myc-myc-hexahistidine tag (biotin-hGFRα3-mmH; SEQ ID:370), around ˜1.2 nm of biotin-hGFRα3-mmH was first captured onto streptavidin-coated Octet sensor tips (Fortebio Inc, #18-5019) by submerging the tips for 1 minute into a 10 μg/mL solution of biotin-hGFRα3-mmH. The antigen coated sensor tips were then placed into wells containing 25 μg/mL solution of a first anti-GFRα3 monoclonal antibody for 4 minutes to saturate the biotin-hGFRα3-mmH surface. The sensor tips were then subsequently dipped into wells containing 25 μ/mL solution of a second anti-GFRα3 monoclonal antibody. The sensor tips were washed in Octet HBST buffer in between every step of the experiment. The real-time binding response was monitored during the course of the experiment and the binding response at the end of every step was recorded as shown in FIG. 9. The response of mAb-2 binding to biotin-hGFRα3-mmH pre-complexed with the first antibody was compared and competitive/non-competitive behavior of different anti-GFRα3 monoclonal antibodies was determined.

The target of experiment [2] is T1, human GFRα3 expressed with a C-terminal …. Kind of experiment: Octet cross-competition; biotin-hGFRα3-mmH pre-saturated with first antibody H4H2243N2. On the procedure: as §1
Background: In BLI a coated tip is dipped into the sample, and binding shifts an interference pattern.

Experiment [3] has the same target. Kind of experiment: SPR, Ab captured, 25C. In short, it runs like this:
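Biacore kinetics use antibody captured via anti-IgG and a 1:1 fit of association (up to 4 min) and dissociation (up to 20 min) phases. Analyte ranges are 200–7.4 nM for myc-myc-His constructs and 100–3.7 nM for the hFc construct.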
Background: SPR reads the build-up and loss of mass on a sensor chip optically.

Experiment [4] shares this target. Kind of experiment: Octet cross-competition; biotin-hGFRα3-mmH pre-saturated with first antibody H4H2292S. The method, then:
as §1

For experiment [5] the target is unchanged. Kind of experiment: Octet cross-competition; biotin-hGFRα3-mmH pre-saturated with first antibody H4H2291S. On the procedure: as §1
For experiment [6] the target is unchanged. Kind of experiment: Octet cross-competition; biotin-hGFRα3-mmH pre-saturated with first antibody H4H2355S. On the procedure:
as §1

Experiment [7] has the same target. Kind of experiment: Octet cross-competition; biotin-hGFRα3-mmH pre-saturated with first antibody H4H2295S. The method, then: as §1
The target is the same in experiment [8]. Kind of experiment: Octet cross-competition; biotin-hGFRα3-mmH pre-saturated with first antibody H4H2212N. The method, then:
as §1

The target is the same in experiment [9]. Kind of experiment: Octet cross-competition; biotin-hGFRα3-mmH pre-saturated with first antibody H4H2350P. On the procedure:
as §1

B1: H4H2292S (antibody, human IgG4, V domains shown)
VH: EVQLVESGGGVVQPGRSLRLSCAASGFTFSSYGMHWVRQAPGKGLEWVSFIWYDGSNKYYADSVKGRFTISRDNSKNTLYLQMNSLTAEDTAVYYCARRGILTGTTAFDIWGQGTMVTVSS
VL: DIQMTQSPSSLSASVGDRVTITCRASQSISSYLNWYQQKPGKAPKLLIYAASSLQSGVPSRFSGSGSGTDFTLTIRSLIPEDFATYYCQQTYNTPFTFGPGTKVEIK
notes: human IgG4 Fc (H4H)
Turning to B1, the “binding response of second antibody (nm)” value in experiment [1] came out at 1.92 nm; in [2], 1.7 nm; in [4], 0.11 nm; in experiment [5], 1.94 nm; in experiment [6], 1.92 nm; in experiment [7] it was 1.8 nm. The figures for the “binding response of second antibody (nm)” value in experiment [8] and in experiment [9] were 1.76 nm and 1.74 nm, respectively. This molecule displayed a Kd in experiment [3] of 483 pM. This molecule had an off-rate constant (koff) in [3] of 5.19e-05 s⁻¹. In experiment [3], this molecule had a kon of 108000 M⁻¹ s⁻¹. In addition, the t1/2 in [3] is 3.72 h.

B2: H4H2295S (antibody, human IgG4, V domains shown)
VH: EVQLVESGGGLVQAGGSLRLSCVASGFTFSSYAMSWVRQAPGKGLEWVSAISGSGGSTYSADSVKGRFTISRDNSKNTLYLQMNSLRAEDTAVYYCTKPSSYSSSNFYYGMDVWGQGTTVTVSS
VL: DIQMTQSPSSVSASVGDRVTITCRASQGISSWLAWYQQKPGKAPKLLIYTASSLQSGVPSRFSGSGSRTDFTLTISSLQPEDFATYYCQQTNSLPLTFGPGTKVEIK
notes: human IgG4 Fc (H4H)
In the case of B2, the “binding response of second antibody (nm)” value in experiment [1] is 0.12 nm; in experiment [2], 0.39 nm; in experiment [4] it was 2.31 nm; in experiment [5], 0 nm; in experiment [6], 0.2 nm; in [7] it was 0.05 nm. The “binding response of second antibody (nm)” value stood at 2.15 nm in experiment [8] and 2.05 nm in experiment [9]. Further, binding in [3] was characterised by a dissociation constant (Kd) of 540 pM. In experiment [3], this molecule came in with a koff of 0.000256 s⁻¹. The molecule further gave a kon in experiment [3] of 475000 M⁻¹ s⁻¹. Moreover, in experiment [3], the t1/2 came to 0.75 h.

B3: H4H2296S (antibody, human IgG4, V domains shown)
VH: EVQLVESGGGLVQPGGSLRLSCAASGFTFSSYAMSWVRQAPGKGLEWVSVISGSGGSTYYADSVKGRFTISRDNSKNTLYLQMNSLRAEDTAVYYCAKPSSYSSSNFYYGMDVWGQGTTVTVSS
VL: B2 VL with Q3V, T50A, Q55R, R68G, S76T, Q90H, L94F, L96F
notes: human IgG4 Fc (H4H)
With B3, the “binding response of second antibody (nm)” value in [1] is 0.06 nm; in experiment [2] it was 0.33 nm; in [4] it was 2.36 nm; in experiment [5], -0.01 nm; in [6] it was 0.18 nm; in experiment [7] it was 0.07 nm. Moreover, the entries for the “binding response of second antibody (nm)” value in experiment [8] and in experiment [9] were 2.36 nm and 2.1 nm, respectively. This molecule gave a Kd in experiment [3] of 332 pM. Moreover, in experiment [3], the koff was determined as 0.000187 s⁻¹. The molecule also yielded a kon in experiment [3] of 563000 M⁻¹ s⁻¹. The molecule further had a t1/2 in [3] of 1.03 h.

B4: H4H2357S (antibody, human IgG4, V domains shown)
VH: EVQLVESGGGLVQPGGSLRLSCAASTFTFSSYAMTWVRQAPGKGLEWVSSISGSGDSTYYADSVKGRFTISRDNSKNTLFLQMNSLRAEDTAVYYCAKKDGPGRYYVRYGMDVWGQGTTVTVSS
VL: B2 VL with A51T, R68G, T91A, L94F, P100G, E105D
notes: human IgG4 Fc (H4H)
Regarding B4, the “binding response of second antibody (nm)” value in experiment [1] was 0.04 nm; in experiment [2] it was 0.32 nm; in experiment [4], 2.43 nm; in experiment [5] it was 0 nm; in experiment [6], 0.16 nm; in experiment [7] it was 0.05 nm. Also, the “binding response of second antibody (nm)” value in experiment [8] came to 2.38 nm; in experiment [9], 2.23 nm. The molecule further came in with a Kd in experiment [3] of 2420 pM. The off-rate constant (koff) in experiment [3] was 0.000557 s⁻¹. For the same molecule, the kon in [3] came out at 230000 M⁻¹ s⁻¹. This molecule also came in with a t1/2 in experiment [3] of 0.35 h.

B5: H4H2294S (antibody, human IgG4, V domains shown)
VH: B2 VH with A14P, V23A, A50V, S60Y, S63A, N77H, T118S
VL: B2 VL with M4L, T50A, R68G, L94F, L96F, T97P, E105D
notes: human IgG4 Fc (H4H)
On to B5, for which the “binding response of second antibody (nm)” value came out at 0.05 nm in experiment [1]; 0.29 nm in experiment [2]; 2.31 nm in experiment [4]; 0 nm in experiment [5]; 0.16 nm in experiment [6]; 0.02 nm in experiment [7]. Besides, the “binding response of second antibody (nm)” value in experiment [8] was 2.12 nm; in experiment [9], 2 nm. The same molecule yielded a Kd in experiment [3] of 142 pM. Besides, the koff in [3] turned out to be 7.99e-05 s⁻¹. This molecule also displayed an on-rate (kon) in experiment [3] of 563000 M⁻¹ s⁻¹. Further, the t1/2 in experiment [3] was determined as 2.42 h.

B6: H4H2355S (antibody, human IgG4, V domains shown)
VH: EVQLVESGGGLVQPGGSLRLSCAASGFTFSSYAMSWVRQVPGKGLEWVSAISGSGDNTYNAESVKGRFTISRDNSKNMLYLQMNSLRAEDTAVYYCAKTKFSSSLLFDYWGQGTLVTVSS
VL: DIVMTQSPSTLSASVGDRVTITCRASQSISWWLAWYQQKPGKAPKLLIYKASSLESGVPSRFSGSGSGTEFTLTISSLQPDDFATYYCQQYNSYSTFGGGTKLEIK
notes: human IgG4 Fc (H4H)
Regarding B6, the “binding response of second antibody (nm)” value in experiment [1] is 0 nm; in experiment [2], 0.24 nm; in [4], 2.07 nm; in experiment [5] it was 0 nm; in experiment [6], 0.07 nm; in experiment [7], 0.02 nm. For the same molecule, the “binding response of second antibody (nm)” value in [8] came to 2.05 nm; in experiment [9], 1.77 nm. The molecule also had a Kd in experiment [3] of 821 pM. The koff in experiment [3] worked out at 0.000152 s⁻¹. In addition, the kon in [3] was determined as 186000 M⁻¹ s⁻¹. Also, the t1/2 in experiment [3] is 1.27 h.

B7: H4H2342P (antibody, human IgG4, V domains shown)
VH: EVQLLESGGGLVQPGGSLRLSCAASGFTFSTYAMSWVRQAPGKGLEWVSAIRGNGVNTYYGDSMKGRFTISRDNSKDTLYLQMNSLRAEDTAVYYCAKNKWELLVFEYWGQGTLVTVSS
VL: DIQMTQSPSSLSASVGDRVTITCRASQDISNYLAWYQQKPGKVPKLLIYAASTLQSGVPFRFSGSGSGTDFTLTISSLQPEDVATYYCQKYNSAPPFGPGTKVDIK
notes: human IgG4 Fc (H4H)
B7: the “binding response of second antibody (nm)” value in [1] is -0.01 nm; in [2], 0.15 nm; in [4], 2.16 nm; in [5], -0.01 nm; in experiment [6], 0.06 nm; in experiment [7], 0.01 nm. Also, the entries for the “binding response of second antibody (nm)” value in experiment [8] and in experiment [9] were 2.17 nm and 1.8 nm, respectively. In experiment [3], this molecule showed a Kd of 1100 pM. In addition, the koff in experiment [3] was 0.000204 s⁻¹. The same molecule returned a kon in experiment [3] of 186000 M⁻¹ s⁻¹. This molecule returned a t1/2 in experiment [3] of 0.95 h.
